target: CCR5 (UniProt P51681); experiment: cell-based or functional assay

wild-type RANTES, sequence (P13501 24-91): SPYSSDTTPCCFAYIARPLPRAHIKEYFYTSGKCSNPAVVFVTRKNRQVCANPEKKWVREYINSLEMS

Question: Which concentration giving the highest inhibition of wild-type RANTES activity (calcium mobilisation) does the source give for “RANTES mutant pVU15 (Ser 1 to Cys, Ser 5 to Cys) (from UniProt P13501 24-91) (ligand)” here?
Answer: 500 ng/mL

Question: And the relative antiviral activity (ID90 RANTES/ID90 mutant), MDM, HIV-1BaL (fold compared to wild-type RANTES)?
Answer: 4.5

Question: What about the relative antiviral activity (ID90 RANTES/ID90 mutant), PBMC, HIV-1 6366 (fold compared to wild-type RANTES) of the same substance?
Answer: 3.3

Question: What about the relative antiviral activity (ID90 RANTES/ID90 mutant), PBMC, HIV-1BaL (fold compared to wild-type RANTES) of the same substance?
Answer: 3.07

Question: Which relative antiviral activity (ID90 RANTES/ID90 mutant), PBMC, HIV-1 6366 (fold compared to wild-type RANTES) does the source give for “RANTES mutant pVU38 (Asp 6 to Arg) (from UniProt P13501 24-91) (ligand)” here?
Answer: 0.13

Question: And the relative antiviral activity (ID90 RANTES/ID90 mutant), PBMC, HIV-1BaL (fold compared to wild-type RANTES)?
Answer: 0.14

Question: Which relative antiviral activity (ID90 RANTES/ID90 mutant), PBMC, HIV-1 6366 (fold compared to wild-type RANTES) does the source give for “RANTES mutant pVU22 (Tyr 14 to Phe) (from UniProt P13501 24-91) (ligand)” here?
Answer: 2.5

Question: And the relative antiviral activity (ID90 RANTES/ID90 mutant), PBMC, HIV-1BaL (fold compared to wild-type RANTES)?
Answer: 10

Question: Which results are given for “RANTES mutant pVU5 (Ser 1 to Cys) (from UniProt P13501 24-91) (ligand)”?
Answer: relative antiviral activity (ID90 RANTES/ID90 mutant), MDM, HIV-1BaL (fold compared to wild-type RANTES): 0.25; relative antiviral activity (ID90 RANTES/ID90 mutant), PBMC, HIV-1 6366 (fold compared to wild-type RANTES): 0.23; relative antiviral activity (ID90 RANTES/ID90 mutant), PBMC, HIV-1BaL (fold compared to wild-type RANTES): 0.24

Question: For “RANTES mutant pVU26 (Arg 44 to Glu) (from UniProt P13501 24-91) (ligand)”, which relative antiviral activity (RANTES ID50/mutant ID50), PBMC, HIV-1BaL (fold compared to wild-type RANTES) is on record?
Answer: 3.16

Question: How did the relative antiviral activity (ID90 RANTES/ID90 mutant), MDM, HIV-1BaL (fold compared to wild-type RANTES) turn out when “RANTES mutant pVU14 (Tyr 3 to Ala) (from UniProt P13501 24-91) (ligand)” was run?
Answer: 0.23

Question: And the relative antiviral activity (ID90 RANTES/ID90 mutant), PBMC, HIV-1 6366 (fold compared to wild-type RANTES)?
Answer: 0.1

Question: And the relative antiviral activity (ID90 RANTES/ID90 mutant), PBMC, HIV-1BaL (fold compared to wild-type RANTES)?
Answer: 0.22

Question: “RANTES mutant pVU24 (Arg 17 to Ala) (from UniProt P13501 24-91) (ligand)” was tested. Which relative antiviral activity (ID90 RANTES/ID90 mutant), PBMC, HIV-1 6366 (fold compared to wild-type RANTES) did it give?
Answer: 1.3

Question: And the relative antiviral activity (ID90 RANTES/ID90 mutant), PBMC, HIV-1BaL (fold compared to wild-type RANTES)?
Answer: 1.09

Question: How did the ID90, inhibition of HIV-1BaL infection of PBMC (p24 antigen) turn out when “wild-type RANTES (from UniProt P13501 24-91) (ligand)” was run?
Answer: 0.096 µg/mL

Question: With “RANTES mutant pVU43 (Lys 45 to Glu) (from UniProt P13501 24-91) (ligand)” as the substance, how does the relative antiviral activity (RANTES ID50/mutant ID50), PBMC, HIV-1BaL (fold compared to wild-type RANTES) read?
Answer: 1.44

Question: With “RANTES mutant pVU17 (additional N-terminal Leucine) (from UniProt P13501 24-91) (ligand)” as the substance, how does the relative antiviral activity (ID90 RANTES/ID90 mutant), MDM, HIV-1BaL (fold compared to wild-type RANTES) read?
Answer: 11

Question: What about the relative antiviral activity (ID90 RANTES/ID90 mutant), PBMC, HIV-1 6366 (fold compared to wild-type RANTES) of the same substance?
Answer: 1.9

Question: What about the relative antiviral activity (ID90 RANTES/ID90 mutant), PBMC, HIV-1BaL (fold compared to wild-type RANTES) of the same substance?
Answer: 4.6

From patent US7164000
